PMC8551067 (Biochemistry, 2021)
Substitutions are numbered along the chain they refer to. Numbers in names are those of the source. One block for each molecule: values may come before it.

Legend:
[1] = target: PvCPS (full-length copalyl diphosphate synthase) (Talaromyces verruculosus, UniProt A0A348FUE1, S723T); conditions: substrate inhibition constant; 1 mM DMAPP, 1 mM MgCl2, pH 7.5
[2] = target: S723F-PvCPS-α (prenyltransferase α domain of copalyl diphosphate synthase from Penicillium verruculosum, S723F variant) (Penicillium verruculosum); assay: crystal structure
purified protein = substrate: C=C(C)CCO[P@@](=O)(O)OP(=O)(O)O; assay: purified protein; conditions: prenyltransferase activity, 1 mM DMAPP, 1 mM MgCl2, pH 7.5

Chain of PvCPS (full-length copalyl diphosphate synthase) (A0A348FUE1 whole entry S723T): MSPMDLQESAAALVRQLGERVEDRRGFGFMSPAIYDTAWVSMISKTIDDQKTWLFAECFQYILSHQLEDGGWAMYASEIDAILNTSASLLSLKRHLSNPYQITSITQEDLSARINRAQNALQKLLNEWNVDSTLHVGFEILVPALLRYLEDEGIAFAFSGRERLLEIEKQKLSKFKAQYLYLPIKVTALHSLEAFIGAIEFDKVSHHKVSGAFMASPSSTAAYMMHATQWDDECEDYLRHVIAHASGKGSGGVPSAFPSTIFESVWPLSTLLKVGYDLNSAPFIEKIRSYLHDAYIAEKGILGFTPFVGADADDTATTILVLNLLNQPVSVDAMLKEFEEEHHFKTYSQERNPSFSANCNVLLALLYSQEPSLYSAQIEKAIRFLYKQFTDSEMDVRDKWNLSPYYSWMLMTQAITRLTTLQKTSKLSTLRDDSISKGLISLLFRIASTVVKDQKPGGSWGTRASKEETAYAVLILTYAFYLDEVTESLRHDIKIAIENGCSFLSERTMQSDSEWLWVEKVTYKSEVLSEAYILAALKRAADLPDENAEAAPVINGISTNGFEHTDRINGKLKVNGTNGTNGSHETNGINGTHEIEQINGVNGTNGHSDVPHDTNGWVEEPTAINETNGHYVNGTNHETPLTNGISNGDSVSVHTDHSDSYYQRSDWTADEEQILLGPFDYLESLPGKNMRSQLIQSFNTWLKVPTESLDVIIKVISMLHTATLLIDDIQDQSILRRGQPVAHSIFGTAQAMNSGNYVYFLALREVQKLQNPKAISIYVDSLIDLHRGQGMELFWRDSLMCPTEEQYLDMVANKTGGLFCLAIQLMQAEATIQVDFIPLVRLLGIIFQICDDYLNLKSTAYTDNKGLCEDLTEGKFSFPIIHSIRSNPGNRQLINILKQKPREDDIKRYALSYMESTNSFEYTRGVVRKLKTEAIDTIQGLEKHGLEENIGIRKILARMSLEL

S723T [1]: 700 ± 100 µM
Molecule: C=C(C)CCOP(=O)(O)OP(=O)(O)O [isopentenyl diphosphate]

stoichiometry N [2]: 6
Molecule: S723F-PvCPS-α (prenyltransferase α domain of copalyl diphosphate synthase from Penicillium verruculosum, S723F variant) (domain or fragment)

B1: PvCPS (full-length copalyl diphosphate synthase) (Talaromyces verruculosus; H786A) (protein)
chain: MSPMDLQESAAALVRQLGERVEDRRGFGFMSPAIYDTAWVSMISKTIDDQKTWLFAECFQYILSHQLEDGGWAMYASEIDAILNTSASLLSLKRHLSNPYQITSITQEDLSARINRAQNALQKLLNEWNVDSTLHVGFEILVPALLRYLEDEGIAFAFSGRERLLEIEKQKLSKFKAQYLYLPIKVTALHSLEAFIGAIEFDKVSHHKVSGAFMASPSSTAAYMMHATQWDDECEDYLRHVIAHASGKGSGGVPSAFPSTIFESVWPLSTLLKVGYDLNSAPFIEKIRSYLHDAYIAEKGILGFTPFVGADADDTATTILVLNLLNQPVSVDAMLKEFEEEHHFKTYSQERNPSFSANCNVLLALLYSQEPSLYSAQIEKAIRFLYKQFTDSEMDVRDKWNLSPYYSWMLMTQAITRLTTLQKTSKLSTLRDDSISKGLISLLFRIASTVVKDQKPGGSWGTRASKEETAYAVLILTYAFYLDEVTESLRHDIKIAIENGCSFLSERTMQSDSEWLWVEKVTYKSEVLSEAYILAALKRAADLPDENAEAAPVINGISTNGFEHTDRINGKLKVNGTNGTNGSHETNGINGTHEIEQINGVNGTNGHSDVPHDTNGWVEEPTAINETNGHYVNGTNHETPLTNGISNGDSVSVHTDHSDSYYQRSDWTADEEQILLGPFDYLESLPGKNMRSQLIQSFNTWLKVPTESLDVIIKVISMLHTASLLIDDIQDQSILRRGQPVAHSIFGTAQAMNSGNYVYFLALREVQKLQNPKAISIYVDSLIDLARGQGMELFWRDSLMCPTEEQYLDMVANKTGGLFCLAIQLMQAEATIQVDFIPLVRLLGIIFQICDDYLNLKSTAYTDNKGLCEDLTEGKFSFPIIHSIRSNPGNRQLINILKQKPREDDIKRYALSYMESTNSFEYTRGVVRKLKTEAIDTIQGLEKHGLEENIGIRKILARMSLEL
Km (purified protein): 160 ± 10 µM
kcat (purified protein): 0.027 s⁻¹
kcat/Km (purified protein): 170 M⁻¹ s⁻¹

B2: PvCPS (full-length copalyl diphosphate synthase) (Talaromyces verruculosus; F760A) (protein)
chain: B1 chain with F760A, A786H
Km (purified protein): 38 ± 1 µM
kcat (purified protein): 0.0279 s⁻¹
kcat/Km (purified protein): 740 M⁻¹ s⁻¹

B3: PvCPS (full-length copalyl diphosphate synthase) (Talaromyces verruculosus; S723T) (protein)
chain: B1 chain with S723T, A786H
Km (purified protein): 36 ± 3 µM
kcat (purified protein): 0.051 s⁻¹
kcat/Km (purified protein): 1400 M⁻¹ s⁻¹

B4: PvCPS (full-length copalyl diphosphate synthase) (Talaromyces verruculosus; S723F) (protein)
chain: B1 chain with S723F, A786H
Km (purified protein): 50 ± 10 µM
kcat (purified protein): 0.11 s⁻¹
kcat/Km (purified protein): 2200 M⁻¹ s⁻¹
